The text below walks through data of paper PMC2891049.

The target in data set [1] is T1, C-reactive protein (UniProt P02741 19-224).
T1 sequence: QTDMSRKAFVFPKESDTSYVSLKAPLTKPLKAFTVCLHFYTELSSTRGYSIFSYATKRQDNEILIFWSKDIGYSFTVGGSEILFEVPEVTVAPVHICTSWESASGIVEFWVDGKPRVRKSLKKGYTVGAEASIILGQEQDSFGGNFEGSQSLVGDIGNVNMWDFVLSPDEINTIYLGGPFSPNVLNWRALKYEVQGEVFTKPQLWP
Kind of data set: pull-down.

The target in data set [2] is T1, C-reactive protein. The data set can be described thus: pull-down. The source holds these as a separate data set.

Where two headings read alike, the source gives them in different places.

B1: MB-T (thrombin sensing aptamer) (structured_DNA)
DNA: GATGTCCACGAGGTCTCTATTGCATTCGCACTTCCGATTTTTTCAGTCCGTGGTAGGGCAGGTTGGGGTGACTCGTACGCTGCAGGTCGAC
Turning to B1, in the data set with C-reactive protein [1], the binding result is reported as “no binding”.

B2: MB-P (PDGF-BB sensing aptamer) (structured_DNA)
DNA: GATGTCCACGAGGTCTCTGCGGCATCAACAATCTCGAATTTTTTACTCAGGGCACTGCAAGCAATTGTGGTCCCAATGGGCTGAGTATCGTACGCTGCAGGTCGAC
With B2, in the data set with C-reactive protein [2], the binding result is given as “no binding”.
